Assay results as given in paper doi:10.1101/544353.
“And” between values parts separate entries of the source, which are not always exact repeats. Identical values can stand only once. Like-named read-outs stand apart in the source and are kept apart here.

Legend:
[1] = target: Photosystem I (PSI) of Chroococcidiopsis sp. PCC 6712 (Chroococcidiopsis sp. PCC 6712 (endogenous)); assay: transmission electron microscopy with single particle analysis
[2] = target: Photosystem I (PSI) of Chroococcidiopsis sp. PCC 6712 (Chroococcidiopsis sp. PCC 6712 (endogenous)); assay: native gel or EMSA
[3] = target: Photosystem I (PSI) of Chroococcidiopsis sp. PCC 7434 (Chroococcidiopsis sp. PCC 7434 (endogenous)); assay: native gel or EMSA
[4] = target: Photosystem I (PSI) of Chroococcidiopsis sp. TS-821 (Chroococcidiopsis sp. TS-821 (endogenous)); assay: sucrose density gradient ultracentrifugation
[5] = target: Photosystem I (PSI) of Chroococcidiopsis sp. TS-821 (Chroococcidiopsis sp. TS-821 (endogenous)); assay: native gel or EMSA
[6] = target: Photosystem I (PSI) of Chroococcidiopsis sp. TS-821 (Chroococcidiopsis sp. TS-821 (endogenous)); assay: native gel or EMSA; remark: listed apart in the source
[7] = target: Photosystem I (PSI) of Chroococcidiopsis thermalis PCC 7203 (Chroococcidiopsis thermalis PCC 7203 (endogenous)); assay: native gel or EMSA
[8] = target: Photosystem I (PSI) of Fischerella muscicola PCC 7414 (Fischerella muscicola PCC 7414 (endogenous)); assay: transmission electron microscopy with single particle analysis
[9] = target: Photosystem I (PSI) of Fischerella muscicola PCC 7414 (Fischerella muscicola PCC 7414 (endogenous)); assay: native gel or EMSA
[10] = target: Photosystem I (PSI) of Fischerella muscicola PCC 7414 (Fischerella muscicola PCC 7414 (endogenous)); assay: native gel or EMSA; remark: listed apart in the source
[11] = target: Photosystem I (PSI) of Gloeocapsa sp. PCC 7428 (Gloeocapsa sp. PCC 7428 (endogenous)); assay: native gel or EMSA
[12] = target: Photosystem I (PSI) of Gloeocapsa sp. PCC 7428 (Gloeocapsa sp. PCC 7428 (endogenous)); assay: native gel or EMSA; remark: listed apart in the source
[13] = target: Photosystem I (PSI) of Leptolyngbya sp. PCC 7124 (Leptolyngbya sp. PCC 7124 (endogenous)); assay: native gel or EMSA
[14] = target: Photosystem I (PSI) of Microcystis sp. PCC 7806 (Microcystis sp. PCC 7806 (endogenous)); assay: native gel or EMSA
[15] = target: Photosystem I (PSI) of Nodularia PCC 73104 (Nodularia PCC 73104 (endogenous)); assay: native gel or EMSA
[16] = target: Photosystem I (PSI) of Nostoc sp. PCC 7120 (Nostoc sp. PCC 7120 (endogenous)); assay: native gel or EMSA
[17] = target: Photosystem I (PSI) of Nostoc sp. PCC 9335 (Nostoc sp. PCC 9335 (endogenous)); assay: native gel or EMSA
[18] = target: Photosystem I (PSI) of Planktothrix paucivesiculata PCC 8926 (Planktothrix paucivesiculata PCC 8926 (endogenous)); assay: native gel or EMSA
[19] = target: Photosystem I (PSI) of Pseudanabaena sp. B SP48 (Pseudanabaena sp. B SP48 (endogenous)); assay: native gel or EMSA
[20] = target: Photosystem I (PSI) of Synechocystis sp. PCC 6803, wild type (Synechocystis sp. PCC 6803 (endogenous)) (UniProt P37277); assay: native gel or EMSA
[21] = target: Photosystem I (PSI) of Synechocystis sp. PCC 7509 (Synechocystis sp. PCC 7509 (endogenous)); assay: native gel or EMSA
[22] = target: Photosystem I (PSI) of Thermosynechococcus elongatus BP-1 (Thermosynechococcus elongatus BP-1 (endogenous)); assay: native gel or EMSA

Photosystem I (PSI) of Chroococcidiopsis sp. PCC 6712 (complex)
stoichiometry N [1]: 3
stoichiometry N [2]: 3

Photosystem I (PSI) of Chroococcidiopsis sp. PCC 7434 (complex)
stoichiometry N [3]: 2

Photosystem I (PSI) of Chroococcidiopsis sp. TS-821 (complex)
stoichiometry N [4]: 2
stoichiometry N [5]: 3
stoichiometry N [6]: 4 and 2

Photosystem I (PSI) of Chroococcidiopsis thermalis PCC 7203 (complex)
stoichiometry N [7]: 2

Photosystem I (PSI) of Fischerella muscicola PCC 7414 (complex)
stoichiometry N [8]: 4
stoichiometry N [9]: 3
stoichiometry N [10]: 4

Photosystem I (PSI) of Gloeocapsa sp. PCC 7428 (complex)
stoichiometry N [11]: 3
stoichiometry N [12]: 4 and 2

Photosystem I (PSI) of Leptolyngbya sp. PCC 7124 (complex)
stoichiometry N [13]: 2

Photosystem I (PSI) of Microcystis sp. PCC 7806 (complex)
stoichiometry N [14]: 2 and 3

Photosystem I (PSI) of Nodularia PCC 73104 (complex)
stoichiometry N [15]: 4

Photosystem I (PSI) of Nostoc sp. PCC 7120 (complex)
stoichiometry N [16]: 4

Photosystem I (PSI) of Nostoc sp. PCC 9335 (complex)
stoichiometry N [17]: 3 and 2

Photosystem I (PSI) of Planktothrix paucivesiculata PCC 8926 (complex)
stoichiometry N [18]: 3

Photosystem I (PSI) of Pseudanabaena sp. B SP48 (complex)
stoichiometry N [19]: 3

Photosystem I (PSI) of Synechocystis sp. PCC 6803, wild type (from UniProt P37277 1-157) (complex)
stoichiometry N [20]: 3

Photosystem I (PSI) of Synechocystis sp. PCC 7509 (complex)
stoichiometry N [21]: 4 and 2

Photosystem I (PSI) of Thermosynechococcus elongatus BP-1 (complex)
stoichiometry N [22]: 3
